Blank lines part the entries; values can stand above or below the molecule they belong to.
Assays:
[1] = biological target: T1, LipPks1+TE (Kitasatospora aureofaciens, UniProt Q30CS2); assay: Steady-state kinetic analysis of LipPks1+TE, extension substrate; format: biochemical, Streptomyces aureofaciens Tü117; details: tested as potential extender substrate (data not shown)
Procedure: Each time point was set up in a reaction volume of 75 μL. Samples containing 10 μM, 20 μM, or 40 μM methylmalonyl-CoA were individually incubated with 500 μM isovaleryl-CoA and 500 μM NADPH in the presence of 0.5 μM LipPks1+TE in 100 mM phosphate buffer, pH 7.2, containing 2.5 mM TCEP at 23° C. The reactions were quenched at different time points by adding 75 μL of methanol and subsequently filtered with an Amicon Ultra-0.5 mL Centrifugal Filter, 3K device (Millipore) at 23° C. 10 μL of the resulting solutions were analyzed by LC-MS. Authentic standard 1e was used to quantify the products in the LC-MS analysis. We assumed that ionization efficiencies of diastereomers were identical.
LC separation of the enzymatically generated products conducted at 50° C. with an Inertsil ODS-3 reverse-phase column (250 mm length, 2.1 mm internal diameter, […] particle size; GL Sciences) using a 1100 series high-performance liquid chromatography system (Agilent Technologies). The mobile phase was composed of 0.2% formic acid in water (solvent A) and 0.2% formic acid in methanol (solvent B). Products were separated using the following gradient: 60% to 100% B for 10 min, held at 100% B for 2 min, 100% to 60% B for 1 min, held at 60% B for 17 min. A flow rate of 0.14 mL/min was used throughout. […]

[2] = biological target: T1, LipPks1+TE; assay: Steady-state kinetic analysis of LipPks1+TE, starter substrates (LC-MS quantification of products 1a-f); format: biochemical, Streptomyces aureofaciens Tü117
Procedure: (§1) A Bradford protein assay was used to measure the concentration of LipPks1+TE. […] Each time point was set up in a reaction volume of 75 μL. Samples containing 20 μM, 40 μM, 80 μM, 160 μM, or 320 μM of acyl-CoA were individually incubated with 200 μM methymalonyl-CoA and 500 μM NADPH in the presence of 0.5 μM LipPks1+TE in 100 mM phosphate buffer, pH 7.2, containing 2.5 mM TCEP at 23° C. The reactions were quenched at different time points by adding 75 μL of methanol and subsequently filtered with an Amicon Ultra-0.5 mL Centrifugal Filter, 3K device (Millipore) at 23° C. 10 μL of the resulting solutions were analyzed by liquid chromatography-mass spectrometry (LC-MS). […] We assumed that ionization efficiencies of diastereomers were identical.
(§2) LC separation of the enzymatically generated products conducted at 50° C. with an Inertsil ODS-3 reverse-phase column (250 mm length, 2.1 mm internal diameter, 3 μM particle size; GL Sciences) using a 1100 series high-performance liquid chromatography system (Agilent Technologies). The mobile phase was composed of 0.2% formic acid in water (solvent A) and 0.2% formic acid in methanol (solvent B). Products were separated using the following gradient: 60% to 100% B for 10 min, held at 100% B for 2 min, 100% to 60% B for 1 min, held at 60% B for 17 min. A flow rate of 0.14 mL/min was used throughout.
(§3) The LC system was coupled to an Agilent Technologies LC-MSD SL electrospray ionization mass (ESI MS) spectrometer. Nitrogen gas was used as both the nebulizing and drying gas to facilitate the production of gas-phase ions. The drying and nebulizing gases were set to 10 L/min and 20 lb/in2, respectively, and a drying gas temperature of 300° C. was used throughout. ESI was conducted in the negative-ion mode with a capillary voltage of 4 kV. […] The instrument was tuned for a range of m/z 50 to 3000 via the Agilent ES tuning mix. Data acquisition and processing were performed by an Agilent Chemstation (Agilent Technologies; Santa Clara, Calif.).

[3] = system: CC(C)CC(=O)SCCNC(=O)CCNC(=O)[C@H](O)C(C)(C)COP(=O)(O)OP(=O)(O)OC[C@H]1O[C@@H](n2cnc3c(N)ncnc32)[C@H](O)[C@@H]1OP(=O)(O)O; assay: as above; format: biochemical, Streptomyces aureofaciens Tü117; details: other: KM of the starter acyl-CoA, 200 μM methylmalonyl-CoA, 500 μM NADPH, 0.5 μM LipPks1+TE, pH 7.2, 23° C.
Procedure: as §1, §2, §3

[4] = system: CCC(=O)SCCNC(=O)CCNC(=O)[C@H](O)C(C)(C)COP(=O)(O)OP(=O)(O)OC[C@H]1O[C@@H](n2cnc3c(N)ncnc32)[C@H](O)[C@@H]1OP(=O)(O)O; assay: as above; format: biochemical, Streptomyces aureofaciens Tü117; details: other: KM of the starter acyl-CoA, 200 μM methylmalonyl-CoA, 500 μM NADPH, 0.5 μM LipPks1+TE, pH 7.2, 23° C.
Procedure: as §1, §2, §3

[5] = system: CC(C)(C)C(=O)SCCNC(=O)CCNC(=O)[C@H](O)C(C)(C)COP(=O)(O)OP(=O)(O)OC[C@H]1O[C@@H](n2cnc3c(N)ncnc32)[C@H](O)[C@@H]1OP(=O)(O)O; assay: as above; format: biochemical, Streptomyces aureofaciens Tü117; details: other: KM of the starter acyl-CoA, 200 μM methylmalonyl-CoA, 500 μM NADPH, 0.5 μM LipPks1+TE, pH 7.2, 23° C.
Procedure: as §1, §2, §3

[6] = system: CC(C)C(=O)SCCNC(=O)CCNC(=O)[C@H](O)C(C)(C)COP(=O)(O)OP(=O)(O)OC[C@H]1O[C@@H](n2cnc3c(N)ncnc32)[C@H](O)[C@@H]1OP(=O)(O)O; assay: as above; format: biochemical, Streptomyces aureofaciens Tü117; details: other: KM of the starter acyl-CoA, 200 μM methylmalonyl-CoA, 500 μM NADPH, 0.5 μM LipPks1+TE, pH 7.2, 23° C.
Procedure: as §1, §2, §3

[7] = system: CCCC(=O)SCCNC(=O)CCNC(=O)[C@H](O)C(C)(C)COP(=O)(O)OP(=O)(O)OC[C@H]1O[C@@H](n2cnc3c(N)ncnc32)[C@H](O)[C@@H]1OP(=O)(O)O; assay: purified protein, by the assay type; details: other: KM of the starter acyl-CoA, 200 μM methylmalonyl-CoA, 500 μM NADPH, 0.5 μM LipPks1+TE, pH 7.2, 23° C.

acceptance as extender substrate by the AT domain [1]: not accepted
Molecule: CC(C)(COP(=O)(O)OP(=O)(O)OC[C@H]1O[C@@H](n2cnc3c(N)ncnc32)[C@H](O)[C@@H]1OP(=O)(O)O)[C@@H](O)C(=O)NCCC(=O)NCCSC(=O)CC(=O)O [Malonyl-CoA]

product formation with starter substrate ([2]; 200 μM methylmalonyl-CoA with NADPH (data not shown)): No product was observed
Molecule: CC(=O)SCCNC(=O)CCNC(=O)[C@H](O)C(C)(C)COP(=O)(O)OP(=O)(O)OC[C@H]1O[C@@H](n2cnc3c(N)ncnc32)[C@H](O)[C@@H]1OP(=O)(O)O [acetyl-CoA]

kcat ([2]; starter acyl-CoA 20-320 μM, 200 μM methylmalonyl-CoA, 500 μM NADPH, 0.5 μM LipPks1+TE, pH 7.2, 23° C.): 0.000883 s⁻¹
Molecule: CC(C)C(=O)SCCNC(=O)CCNC(=O)[C@H](O)C(C)(C)COP(=O)(O)OP(=O)(O)OC[C@H]1O[C@@H](n2cnc3c(N)ncnc32)[C@H](O)[C@@H]1OP(=O)(O)O [isobutyryl-CoA]

Molecule: LipPks1+TE (Kitasatospora aureofaciens)
Km [3]: 128.1 µM | kcat [3]: 0.00483 s⁻¹ | kcat/Km [3]: 38 M⁻¹ s⁻¹ | Km [4]: 13.4 µM | kcat [4]: 0.000933 s⁻¹ | kcat/Km [4]: 70.3 M⁻¹ s⁻¹ | Km [5]: 8.8 µM | kcat [5]: 3.33e-05 s⁻¹ | kcat/Km [5]: 4.1 M⁻¹ s⁻¹ | Km [6]: 2.9 µM | kcat [6]: 0.000883 s⁻¹ | kcat/Km [6]: 304.1 M⁻¹ s⁻¹ | Km [7]: 26.4 µM | kcat [7]: 0.0006 s⁻¹ | kcat/Km [7]: 22.7 M⁻¹ s⁻¹

Source: patent US11746336B2, “Producing 3-hydroxycarboxylic acid and ketone using polyketide synthases” (The Regents of the University of California, priority 2014, dated 2023)
